Laboratory results from patent US20230357838.

What was measured:
[1] = tested on: T1, AvDa02 (Actinomyces viscosus)
T1 sequence: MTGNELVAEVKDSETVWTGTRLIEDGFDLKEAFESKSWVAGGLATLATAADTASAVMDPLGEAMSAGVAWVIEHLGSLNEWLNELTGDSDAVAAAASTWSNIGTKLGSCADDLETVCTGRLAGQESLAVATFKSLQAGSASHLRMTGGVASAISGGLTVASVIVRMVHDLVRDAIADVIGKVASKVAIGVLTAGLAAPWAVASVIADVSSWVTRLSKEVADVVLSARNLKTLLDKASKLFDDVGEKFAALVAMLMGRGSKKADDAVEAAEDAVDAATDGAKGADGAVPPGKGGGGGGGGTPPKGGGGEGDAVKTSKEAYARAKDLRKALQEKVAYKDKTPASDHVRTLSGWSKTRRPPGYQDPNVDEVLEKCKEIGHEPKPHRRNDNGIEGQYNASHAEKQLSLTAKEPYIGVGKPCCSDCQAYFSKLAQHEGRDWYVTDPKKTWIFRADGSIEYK

CbDa01 (unidentified) = settings: CG 0.760, CH 0.022
[2] = tested on: T2, CrDa01 (Clostridium roseum)
T2 sequence: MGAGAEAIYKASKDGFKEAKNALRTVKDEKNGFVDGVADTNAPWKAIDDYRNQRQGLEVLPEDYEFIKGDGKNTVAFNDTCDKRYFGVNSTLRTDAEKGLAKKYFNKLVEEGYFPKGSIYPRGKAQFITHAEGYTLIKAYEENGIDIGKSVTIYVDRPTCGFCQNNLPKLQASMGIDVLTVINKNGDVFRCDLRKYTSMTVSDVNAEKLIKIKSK

[3] = tested on: T3, BcDa02 (Burkholderia cepacia)
T3 sequence: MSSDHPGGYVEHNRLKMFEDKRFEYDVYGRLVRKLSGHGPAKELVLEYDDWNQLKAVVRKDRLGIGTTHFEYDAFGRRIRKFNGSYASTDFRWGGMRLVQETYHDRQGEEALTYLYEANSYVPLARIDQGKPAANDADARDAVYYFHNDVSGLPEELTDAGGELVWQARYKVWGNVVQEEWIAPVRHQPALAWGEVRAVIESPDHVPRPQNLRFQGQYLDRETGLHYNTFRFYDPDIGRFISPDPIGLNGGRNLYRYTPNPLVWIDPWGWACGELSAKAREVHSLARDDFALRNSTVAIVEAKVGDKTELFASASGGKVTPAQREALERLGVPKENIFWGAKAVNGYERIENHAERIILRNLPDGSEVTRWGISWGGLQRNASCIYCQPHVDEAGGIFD

AcDa01 = settings: CG 0.790, CH 0.014
LbsDa01 (Simiaoa sunii) = tested on: T4, LbsDa01 (Simiaoa sunii)
T4 sequence: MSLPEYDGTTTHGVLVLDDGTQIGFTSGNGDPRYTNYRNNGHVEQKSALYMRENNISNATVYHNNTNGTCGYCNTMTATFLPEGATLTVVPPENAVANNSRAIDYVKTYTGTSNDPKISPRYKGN

MGYPDa20 (unidentified) = tested on: T5, MGYPDa20 (unidentified); settings: 5mC 0.049, 5hmC 0.021
T5 sequence: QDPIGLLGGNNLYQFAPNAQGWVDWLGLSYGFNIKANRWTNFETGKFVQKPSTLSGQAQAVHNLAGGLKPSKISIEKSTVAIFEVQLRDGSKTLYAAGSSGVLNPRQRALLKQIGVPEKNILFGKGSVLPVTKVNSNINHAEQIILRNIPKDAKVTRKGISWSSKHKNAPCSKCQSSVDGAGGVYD

MGYPDa23 (unidentified) = tested on: T6, MGYPDa23 (unidentified)
T6 sequence: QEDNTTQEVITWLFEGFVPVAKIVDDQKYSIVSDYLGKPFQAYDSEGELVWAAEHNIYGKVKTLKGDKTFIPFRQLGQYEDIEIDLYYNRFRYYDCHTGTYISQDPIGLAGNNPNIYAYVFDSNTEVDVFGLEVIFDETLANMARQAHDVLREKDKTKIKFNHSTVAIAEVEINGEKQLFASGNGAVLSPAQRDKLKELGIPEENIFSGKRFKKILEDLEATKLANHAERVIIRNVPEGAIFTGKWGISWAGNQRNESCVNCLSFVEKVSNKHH

AncDa04 = tested on: T7, AncDa04
T7 sequence: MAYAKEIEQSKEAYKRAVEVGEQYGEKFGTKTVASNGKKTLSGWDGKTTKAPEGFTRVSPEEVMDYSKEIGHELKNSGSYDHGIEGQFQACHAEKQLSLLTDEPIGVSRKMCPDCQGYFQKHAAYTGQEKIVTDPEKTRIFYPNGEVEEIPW

[4] = tested on: AshDa01 (Amycolatopsis sp.); settings: CG 0.699, CH 0.193
[5] = tested on: T8, d38_MGYPDa829 (unidentified)
T8 sequence: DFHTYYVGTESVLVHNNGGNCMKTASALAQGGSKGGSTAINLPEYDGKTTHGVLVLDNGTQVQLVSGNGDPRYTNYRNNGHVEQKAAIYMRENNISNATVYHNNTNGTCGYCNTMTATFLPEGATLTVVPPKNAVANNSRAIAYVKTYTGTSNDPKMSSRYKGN

[6] = tested on: T9, RaDa01 (Ruminococcus sp.)
T9 sequence: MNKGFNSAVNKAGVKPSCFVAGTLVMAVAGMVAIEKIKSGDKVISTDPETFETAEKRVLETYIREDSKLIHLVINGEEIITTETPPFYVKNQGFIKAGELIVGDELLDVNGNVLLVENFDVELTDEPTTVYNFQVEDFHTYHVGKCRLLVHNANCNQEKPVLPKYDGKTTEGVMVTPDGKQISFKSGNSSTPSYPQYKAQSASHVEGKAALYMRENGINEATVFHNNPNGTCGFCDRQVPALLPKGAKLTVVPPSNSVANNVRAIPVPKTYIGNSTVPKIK

[7] = tested on: T10, FlDa01 (Flavobacterium sp.)
T10 sequence: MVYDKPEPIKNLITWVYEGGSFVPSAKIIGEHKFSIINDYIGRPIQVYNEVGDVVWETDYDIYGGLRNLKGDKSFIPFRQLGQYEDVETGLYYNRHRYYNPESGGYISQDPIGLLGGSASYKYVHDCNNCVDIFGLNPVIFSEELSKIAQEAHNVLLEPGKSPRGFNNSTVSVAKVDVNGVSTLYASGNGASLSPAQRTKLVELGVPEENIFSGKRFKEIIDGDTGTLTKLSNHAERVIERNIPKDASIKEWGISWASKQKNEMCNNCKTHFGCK

unmodified dsDNA (E. coli C2566 genomic)
activity (fraction deaminated) [1]: 0.998
activity (fraction deaminated) (CbDa01 (unidentified)): 0.24
activity (fraction deaminated) [2]: 0.811
activity (fraction deaminated) [3]: 0.772
activity (fraction deaminated) (AcDa01): 0.243
activity (fraction deaminated) (LbsDa01 (Simiaoa sunii)): 0.889
activity (fraction deaminated) (MGYPDa20 (unidentified)): 0.857
activity (fraction deaminated) (MGYPDa23 (unidentified)): 0.935
activity (fraction deaminated) (AncDa04): 0.992
activity (fraction deaminated) [4]: 0.342
activity (fraction deaminated) [5]: 0.993
activity (fraction deaminated) [6]: 0.465
activity (fraction deaminated) [7]: 0.928
activity (fraction deaminated) (MGYPDa01 (unidentified)): 0.748
activity (fraction deaminated) (d22_Cd4_PeDa01): 0.641
